The nature of the data set: protease stability score; higher = more stable; yeast display proteolysis, trypsin and chymotrypsin.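 Further: log10 excess protease needed over predicted unfolded state with 0 meaning unfolded.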

Sequence “DEEKLDKVMKMVRDALQKGDQEKAQKLVKPDGHFQVGDQELNGYDQVRKYYKKVKDLGAEAHVKKTDVRGNTFRLEYDARLKGVQVTIRLEVRVKDEKVDEARADMTEDYAKHVTKG” registered a protease stability score of 0.53.
Sequence “DEEKLDVARQYFEAVERGDEDRALELVDKDVRVDVGEKRVRGREEAKTQIRREEEEIRLRVEHVDFTAKGDRVRVRVVQVENINGRPVRFHYTMNMTMHNGRIKRIDVQIPEEVQEQLRG” came in with a protease stability score of -0.146.
Next, “DEEKLEELAEEILQMLQTGDPDQARRMADEDVRAEYGDKQYTGKERLVEVVRKLKDRADHARINSFEVEGENIVADFVMVVDGQERRVRMTARVENGRIKEVRVKTS”: 0.96; “DEEKLEKFARNFEKVVERGDEDKFRSQADPNVQAVIGDKRIHGDEHLAHWMNKLRSHIDHFRVVDMRVQGEEIHLDVKFVVDGRRVRFIIEIEVHNGHITRFTVHVTDEEKWRRREK”: 0.335.
Next, “DEEKLHTIAKKAADIVQSGDEEKIIRLADPNAEMRIGDQELHGMDDAKRVLHEFMKRVDHVSVKTWHVQGNRIRLDVKFEVNGRDIRVELDITIENGEIDSMEFDPRARDAQKT”: 0.183; “DEEKLKKVIDTLQKALQNGNPDEIVKVIDKTVKFKLGDETFEGQEDARKVIKRLRDQGMEFHVERQEVTGDQAKVQTVWHAGDVEMHMHVTYDVDGDKVKRVEVRWDEEAKKAVKKG”: 0.562; “DEEKLKRIWQEIMDVWRTNNEDRMTNLFDENATVVVGDETYRGREDVNKALHEFNKRVDNINVTRLDVDGDKANLKAELTYNGRTIDITLRITLRNGRIEEMTVDPEVMKTARS”: 0.71.
Next, “DEEKLMRNMIKKVSKLLKEGNWDEIANNADKNAKYDVGDTEVHGKEHAQEMHDRFRQNVDHAELSVTRVDVKGDKVQVHVDHSFTNNGRKHKFHLIFWASNVNGRMVIKSVQQK”: 0.565.
“DEEKLREMMKKWQKVVQEKNTDEAKKLYHPNGEWENGSERDQGVEKVVKAIKTAQEKGFEFQIREVEVKGDKATMIYDLRNGDKTVTFHVEMEVDGGRVKRVRAKVSEEAKKLLTKG”: the protease stability score stood at 0.511.
With “DEEKLRKDMEEAFRLVTQGNPEEFADRFRDNPRMHVGDKEYHGREEARKAITTLVKHIDRIELHHIDIQGDKAEVRYRATVNGKRADHVMRIEANNGQLQRASVDPDLVTSVLR”, the protease stability score was -0.347.
Then “DEEKLRKMVETLIQAVQNGNLEKIRQMVKENVEFTLGDKTYKGQEDALKIVKHLQQVGAEAHVERQEITGDEAKVKTQWHVGDHTMEVEVVYYVRDDKVEKVEINWSEEAKKAIKAG”, with 1.17.
“DEEKLRRMAERLIRAFDQGDRKRMEDNMDPNVELQVGETVFHGREQVTKALYELRKQVDHFELKSVDIKGEKVVVHVILNINGKHVEMNWVFEAHDGKVKEIKLNPDNQREAET” came in with a protease stability score of 2.15.
Then “DEEKLVQLMDKAFKFIVNGNTEEAQKMGADNVRYEYVDKKYEGPDVAKKMAQLMQKVGVERTVKRQELKGDQATADFDYRKGDKEYRTTAEVKYEGDKIKEARVEVTDEVKEVVHQG”, with -0.249; and “DEEKMDRAKEHYKAIQKGDHERARQLADPNATFVIGDKTIHGREEYADQMKKRRDHIRIEIKSVTFNEEEGRVDVKIEQVRQHNGKPKKFRQDVKFDVQGDKIHQISVTEKK”, with 0.189.
The sequence “DEEKMEDFVRKLRTGDPKQMHDNVDKDATLTIGDKKWHGRERVATAIRKWLHRADHVRIDRYDIDGDHVRIDARVTFNGKNLKVVLEYRIHNGKVKSVVLKVTSTEVQRQIDKLLS” displayed a protease stability score of 1.37.
Next, “DEEKMEIVLNAFTAMATNNEEDIERLMDPNVKVTIGDTVIHGREQLQKNADRHRRSARINIKSMSAEVQGDTVRVVVNATREHNGRPQTFQLRAVAVAHNGKVKELNVEEKQ”: 1.48; “DEEKMKEFVKNLNTGNNHRLRKMMDEDVKVVVGDKRYKGDEQAAQFWRRILEQADDIRVNDFKVSGNTAHVDVVINWNGKHIVLDVHVEIHNGKVKQIRIEVRDEEVKRAQEEMES”: 1.25; “DEEKMLRIAKKMVDALKNGDKDKVKKLGAEGVKVHAMDEEVEGPDQLAKYAKKFKDIGVHVEYKETEYKGDTVTFHTEAEKGDAKVRFEVHYVVKGDKVQKVEVRVDKDQLTEFRKS”: 0.524.

Source of the values: the NTF2 design screens of Basanta et al. (2020).
